Measurements published in patent US20260034234A1 (AGENSYS, published 2026).
Positions count from the first letter of the chain named.

Assays:
[1] = molecular target: T1, Rat 191P4D12 (on PC3 cells) (rat, UniProt D3ZET1 31-509); test: FACS saturation binding on PC3-rat-191P4D12 cells
T1 construct: whole, on cells; also called PC3-rat-191P4D12; Rat ortholog
T1 sequence: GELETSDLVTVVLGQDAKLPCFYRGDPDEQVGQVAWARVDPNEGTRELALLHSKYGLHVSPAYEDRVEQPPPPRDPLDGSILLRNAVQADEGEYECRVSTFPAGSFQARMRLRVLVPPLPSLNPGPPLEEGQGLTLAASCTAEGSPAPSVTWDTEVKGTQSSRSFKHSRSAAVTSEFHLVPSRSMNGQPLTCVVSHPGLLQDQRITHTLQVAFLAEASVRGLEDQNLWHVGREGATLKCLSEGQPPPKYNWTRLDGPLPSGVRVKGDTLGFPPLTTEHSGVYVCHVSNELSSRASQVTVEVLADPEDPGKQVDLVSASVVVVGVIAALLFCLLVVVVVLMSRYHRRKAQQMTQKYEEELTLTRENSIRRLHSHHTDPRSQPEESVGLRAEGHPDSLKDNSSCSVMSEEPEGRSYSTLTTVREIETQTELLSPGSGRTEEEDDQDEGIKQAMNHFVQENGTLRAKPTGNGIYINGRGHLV
Method: (§1) Ha22-2(2,4)6.1vcMMAE was tested for its binding affinity to 191P4D12 expressed on the surface of PC3-human-191P4D12, PC3-Cynomolgus-191P4D12, and PC3-rat-191P4D12 cells respectively. Briefly, eleven (11) dilutions of Ha22-2(2,4)6.1vcMMAE were incubated with each of the cell types (50,000 cells per well) overnight at 4° C. at a final concentration of 160 nM to 0.011 nM. At the end of the incubation, cells are washed and incubated with anti-hIgG-PE detection antibody for 45 min at 4° C. After washing the unbound detection antibodies, the cells are analyzed by FACS. MFI values were entered into Graphpad Prisim software and analyzed using the one site binding (hyperbola) equation of Y=Bmax*X/(Kd+X) to generate Ha22-2(2,4)6.1vcMMAE saturation curves shown also in FIGS. 6-8 respectively. Bmax is the MFI value at maximal binding of Ha22-2(2,4)6.1vcMMAE to 191P4D12; Kd is the Ha22-2(2,4)6.1vcMMAE binding affinity which is the concentration of Ha22-2(2,4)6.1vcMMAE required to reach half-maximal binding.

[2] = molecular target: T2, purified recombinant 191P4D12 (ECD amino acids 1-348) (human, UniProt Q96NY8 32-348); test: SPR (Biacore), ADC captured by anti-human Fc, 191P4D12 ECD as analyte
T2 construct: Range as printed
T2 sequence: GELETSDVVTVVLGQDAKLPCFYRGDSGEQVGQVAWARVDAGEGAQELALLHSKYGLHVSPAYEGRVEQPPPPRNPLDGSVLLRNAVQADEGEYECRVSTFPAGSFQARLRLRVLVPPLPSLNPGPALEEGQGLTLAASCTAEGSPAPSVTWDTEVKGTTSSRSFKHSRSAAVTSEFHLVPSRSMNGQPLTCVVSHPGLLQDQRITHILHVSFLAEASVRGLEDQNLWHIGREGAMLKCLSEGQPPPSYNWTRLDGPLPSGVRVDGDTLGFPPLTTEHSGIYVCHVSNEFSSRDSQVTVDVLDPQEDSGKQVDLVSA
Method: The affinity of Ha22-2(2,4)6.1 MAb and Ha22-2(2,4)6.1vcMMAE to purified recombinant 191P4D12 (ECD amino acids 1-348) was performed by Surface Plasmon Resonance (SPR) (BIAcore). Briefly, goat-anti-human Fcγ polyclonal Abs (Jackson Immuno Research Labs, Inc.) were covalently immobilized on the surface of a CM5 sensor chip (Biacore). Purified Ha22-2(2,4)6.1 MAb or Ha22-2(2,4)6.1vcMMAE were then captured on the surface of said chip. On average, approximately 300 RUs of test Ha22-2(2,4)6.1 MAb or Ha22-2(2,4)6.1vcMMAE was captured in every cycle. Subsequently, a series of five (5) to six (6) dilutions of recombinant 191P4D12 (ECD amino acids 1-348) ranging from 1 nM to 100 nM was injected over such surface to generate binding curves (sensograms) that were processed and globally fit to a 1:1 interaction model using BIAevaluation 3.2 and CLAMP software (Myszka and Morton, 1998) (FIG. 22). Table V summarizes association and dissociation rate constants as well as affinities of Ha22-2(2,4)6.1 MAb and Ha22-2(2,4)6.1 vcMMAE to recombinant 191P4D12 (ECD amino acids 1-348).

[3] = molecular target: T3, Cynomolgus 191P4D12 (on PC3 cells) (cynomolgus monkey, UniProt A0A2K5WES1 32-510); test: FACS saturation binding on PC3-Cynomolgus-191P4D12 cells
T3 construct: also called PC3-Cynomolgus-191P4D12; Cyno ortholog
T3 sequence: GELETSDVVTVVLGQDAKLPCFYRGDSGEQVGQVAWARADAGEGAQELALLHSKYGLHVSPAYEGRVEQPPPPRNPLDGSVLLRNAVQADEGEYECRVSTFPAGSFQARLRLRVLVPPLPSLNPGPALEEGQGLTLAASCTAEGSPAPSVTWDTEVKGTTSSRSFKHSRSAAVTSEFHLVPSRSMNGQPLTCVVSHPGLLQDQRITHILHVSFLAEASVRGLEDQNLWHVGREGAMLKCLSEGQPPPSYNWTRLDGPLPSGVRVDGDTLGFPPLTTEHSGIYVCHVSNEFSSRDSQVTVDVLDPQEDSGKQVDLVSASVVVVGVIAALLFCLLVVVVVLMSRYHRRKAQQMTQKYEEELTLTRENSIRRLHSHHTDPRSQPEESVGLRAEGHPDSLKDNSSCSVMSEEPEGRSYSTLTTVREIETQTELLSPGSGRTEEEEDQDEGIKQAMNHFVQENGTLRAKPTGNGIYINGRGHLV
Method: as §1

[4] = molecular target: T4, 191P4D12 (human, wild type, on cells) (human, UniProt Q96NY8 32-510); test: FACS saturation binding on PC3-human-191P4D12 cells
T4 construct: 510 amino acid ORF expressed on PC3, RAT/Rat1(E) cells and present in cancer cell lines and tumor specimens; also called human 191P4D12; wild-type 191P4D12
T4 sequence: T3 sequence with A39V, V230I, T437A
Method: as §1

Kd [1]: 1.6 nM
Kd [2]: 11 nM
koff [2]: 0.0052 s⁻¹
kon [2]: 450000 M⁻¹ s⁻¹
Kd [3]: 0.34 nM
Kd [4]: 0.69 nM
B1: Ha22-2(2,4)6.1vcMMAE (antibody, human IgG1, kappa, V domains shown)
VH: EVQLVESGGGLVQPGGSLRLSCAASGFTFSSYNMNWVRQAPGKGLEWVSYISSSSSTIYYADSVKGRFTISRDNAKNSLSLQMNSLRDEDTAVYYCARAYYYGMDVWGQGTTVTVSS
VL: DIQMTQSPSSVSASVGDRVTITCRASQGISGWLAWYQQKPGKAPKFLIYAASTLQSGVPSRFSGSGSGTDFTLTISSLQPEDFATYYCQQANSFPPTFGGGTKVEIKR
modifications: vcMMAE (Val-Cit linker, MMAE) on cysteine thiols after partial TCEP reduction, positions not given; p about 3.8 drugs per antibody
notes: also called Ha22-2(2,4)6.1ADC
